# Assay results from patent US20100129344A1 (published 2010).
# B1: Recombinant phosphorylated IGFBP-1 (human), intact (other, UniProt P08833 26-259, looked up)
# chain: APWQCAPCSAEKLALCPPVSASCSEVTRSAGCGCCPMCALPLGAACGVATARCARGLSCRALPGEQQPLHALTRGQGACVQESDASAPHAAEAGSPESPESTEITEEELLDNFHLMAPSEEDHSILWDAISTYDGSKALHVTNIKKWKEPCRIELYRVVESLAKAQETSGEEISKFYLPNCNKNGFYHSRQCETSMDGEAGLCWCVYPWNGKRIPGSPEIRGDPNCQIYFNVQN
# modifications: phosphorylated; the sites were not determined here (the filing names Ser101, Ser119, Ser169 as sites for phosphorylation)
# notes: mature; Analyte in the BIAcore runs and substrate in the protease assays; also called pIGFBP-1; recombinant pIGFBP-1
# Key:
# [1] = biological target: T1, IGF-II (human) (human, UniProt P01344 25-91); test: BIAcore, IGF-II on chip, 400 nM
# T1 construct: also called radioiodinated IGF-II
# Method: The sensor surface was regenerated with 20 μl of 100 mM HCl and washed for 6 min before the next sample. We used a 1:1 Langmuir binding interaction model for kinetic analysis using the BIAcore software and GraphPad Prism (GraphPad Software Inc, San Diego, Calif.).
# (§1) The interaction of proteolysed IGFBP-1 with IGF-I and IGF-II biosensor surfaces was analysed (BIAcore). […] The kinetic analyses of the rates of association (over 21-120 s, ks) and dissociation (over 261-360 s, kd) for the results shown in FIGS. 12A and 12B are summarized in Table 2. […] The rate of dissociation further increased to more than 7-fold at the 4-h time point. The rate of dissociation of IGFBP-1 from IGF-II was greater than twice that from IGF-I, and proteolysis had no effect on this relationship.
# TABLE 2 Kinetic analysis of interactions of intact and proteolysed phosphorylated IGFBP-1 with IGF biosensor surfaces The kinetic data shown in […] were analysed using the 1:1 Langmuir interaction model. IGFBP-I was injected either intact, or after 2- or 4-proteolysis by azurocidin, over IGF-I and IGF-II biosensor surfaces.
# [2] = biological target: T1, IGF-II (human); test: BIAcore, IGF-II on chip against IGF-I on chip, 200 nM
# Method: (§2) Instrument and reagents (buffers, chemicals for activating and deactivated) were purchased from BIAcore (Uppsala, Sweden). IGF-I, IGF-II and des(1-3)IGF-I were immobilized on the sensor chip by amine coupling and deactivated with 0.1M ethanolamine. A reference flow cell was also prepared to correct for background and bulk refractive index contribution. After equilibration buffer to achieve a stable baseline, binding experiments was at 22 C in 2 separate experiments with the samples injected in random order. 40 μl of each sample was injected over the sensor surface at a rate of 10 μl/min (association period), followed by a 6 min wash with buffer (dissociation period). The sensor surface was regenerated with 20 μl of 100 mM HCl and washed for 6 min before the next sample. We used a 1:1 Langmuir binding interaction model for kinetic analysis using the BIAcore software and GraphPad Prism (GraphPad Software Inc, San Diego, Calif.).
# (§3) The interaction of proteolysed IGFBP-1 with IGF-I and IGF-II biosensor surfaces was analysed (BIAcore). In FIG. 12 the mean biosensorgrams for the interaction of 200 nM phosphorylated IGFBP-1 intact are shown, and after 2-h and 4-h incubations with partially purified azurocidin, with immobilized IGF-I (FIG. 12A) and IGF-II (FIG. 12B). […]
# [3] = biological target: T2, des(1-3)IGF-I (human, UniProt P05019 52-118); test: BIAcore, des(1-3)IGF-I amine-coupled on chip
# T2 construct: domain: des(1-3)IGF-I (mature IGF-I without its first three residues)
# Method: Recombinant pIGFBP-1 was analyzed across a des(1-3) IGF-I biosensor surfaces with a concentration range of 50, 100, 200, 400 nM, at a flow rate of 10 μl/min. The mean sensorgrams are shown for 400 nM IGFBP-1 (intact, n=3) and 200 nM IGFBP-1, intact (0 h, n=4) and after 2-h (n=5) and 4-h (n=3) incubations with partially purified azurocidin in a protease:substrate ratio of 1:3 500 for 2 h at 37 C.
# as §2, with “We used a 1:1 Langmuir binding interaction model for kinetic analysis using the BIAcore software and GraphPad Prism (GraphPad Software Inc, San Diego, Calif.).” left out
# The interaction of IGFBP-1 with des(1-3)IGF-I on the biosensor surface was also determined. […]
# [4] = biological target: T3, Recombinant IGF-I (human) (human, UniProt P05019 49-118); test: BIAcore, IGF-I on chip, 200 nM (the reference itself)
# T3 construct: also called IGF-1; full length IGF-I
# Method: as §2, §3
# [5] = biological target: T1, IGF-II (human); test: BIAcore, IGF-II on chip, 200 nM (the reference itself)
# Method: as §2, §3
# [6] = biological target: T1, IGF-II (human); test: BIAcore, IGF-II on chip against IGF-I on chip, 400 nM
# Method: as §2
# as §1, with “The rate of dissociation of IGFBP-1 from IGF-II was greater than twice that from IGF-I, and proteolysis had no effect on this relationship.” left out
# [7] = biological target: T3, Recombinant IGF-I (human); test: BIAcore, IGF-I on chip, 400 nM
# Method: as §2, §3
# [8] = biological target: T1, IGF-II (human); test: cell-based or functional assay
# T1 sequence (P01344 25-91 limits assumed): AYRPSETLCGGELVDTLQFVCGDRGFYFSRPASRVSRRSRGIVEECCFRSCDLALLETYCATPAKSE
# T3 sequence (P05019 49-118 limits assumed): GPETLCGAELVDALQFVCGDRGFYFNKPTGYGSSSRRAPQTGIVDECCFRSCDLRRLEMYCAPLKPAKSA
# T2 sequence (P05019 52-118 limits assumed): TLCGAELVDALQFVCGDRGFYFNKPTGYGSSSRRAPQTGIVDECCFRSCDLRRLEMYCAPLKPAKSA
binder,measurement,setting,value
B1,rel kd (relative to 200 nM intact pIGFBP-1),[1],0.97 ratio
same,rel ks (relative to 200 nM intact pIGFBP-1),[1],1.86 ratio
same,kd rel to IGF-I,[2],2.41 ratio
same,ks rel to IGF-I,[2],1.02 ratio
same,fold lower biosensor response than with full length IGF-I,[3],10 fold less
same,rel kd (relative to 200 nM intact pIGFBP-1),[4],1 ratio
same,rel ks (relative to 200 nM intact pIGFBP-1),[4],1 ratio
same,rel kd (relative to 200 nM intact pIGFBP-1),[5],1 ratio
same,rel ks (relative to 200 nM intact pIGFBP-1),[5],1 ratio
same,kd rel to IGF-I,[6],2.33 ratio
same,ks rel to IGF-I,[6],1.01 ratio
same,rel kd (relative to 200 nM intact pIGFBP-1),[7],1 ratio
same,rel ks (relative to 200 nM intact pIGFBP-1),[7],1.91 ratio
same,3H-thymidine incorporation in MCF-7 cells stimulated by IGF-II 10 ng/ml (2-fold without IGFBP-1),[8],1.5 fold
